Reference: patent US20040023887A1
No end group written: not given here.

B1: 20E2B-2-B11-IGFR (peptide)
peptide: VVTPVNFYRALEALVRGXRLG
modifications: not fully specified; printed as VVTPVNFYRALEALVRG.RLG; X: residue not identified in the source

How the values were obtained:
[1] = target: soluble human insulin receptor-immunoglobulin heavy chain chimera (human) (UniProt P06213); assay: phage ELISA
[2] = target: soluble IGF-1R (recombinant human IGF-1R extracellular domain, R&D Systems Cat. # 391-GR/CF) (human), P08069; assay: phage ELISA
[3] = target: soluble human insulin receptor-immunoglobulin heavy chain chimera (human), P06213; assay: phage ELISA
[4] = target: Insulin receptor prepared according to Bass et al., 1996 (soluble IR-immunoglobulin chimera) (human) (UniProt P06213); assay: phage ELISA; IR ratio divided by IGF-1R ratio
[5] = target: Insulin receptor prepared according to Bass et al., 1996 (soluble IR-immunoglobulin chimera) (human) (UniProt P06213); assay: phage ELISA, receptor coated on plate; A405 over non-fat milk
[6] = target: His-tagged soluble recombinant human IGF-1R (human), P08069; assay: AlphaScreen competition versus IGF-1 (b-hIGF-1, srhIGF-1R-his)

Binder | IR/IGF-1R ratio comparison [1] | ratio over background [1] | also measured
CCTTEMVVMDARDDPFYHKLSELVTGG [B6Hα-1-B5-IR] | 0 | 1 | 
B1 |  |  | IGF-1R/IR ratio comparison [2]: 9.4; ratio over background [2]: 10.6; IR/IGF-1R ratio comparison [3]: 0.1; ratio over background [3]: 1.1
YRGMLVLGRISGGAGKAASERPARIGQKVSAVNFYDWFV [A6L-0-E3-IR] | 0.1 | 2 | 
AGSVTSFYDAMEQLVATGTSA [20E2A-3-A4-IGFR] |  |  | IR/IGF-1R ratio comparison [4]: 0.7; ratio over background (IR) (fold over background) [5]: 1.8
QPDHSYFYSLLQELVGSEERL [20E2B-4-F9-IGFR] | 0.1 | 1.9 | 
SQAGSAFYAWFDQVLRTVHSA [20E2Bβ-4-G6-IR] | 0.3 | 1.9 | 
RGAVAGFHDQFYDWFDRQVSRVHKFG [H2CA-4-H9-IGFR] | 0.3 | 1.9 | 
TFYSCLASLLTGTPQPNRGPWERCRKK (modifications not checked) [RP6KK] |  |  | Affin. [6]: 0.19 µM
